{
  "source": "paper PMC7382281",
  "about": "(Proceedings of the National Academy of Sciences of the …, 2020)",
  "key": {"[1]": {"target": "BRIL (apocytochrome b562RIL)-fusion construct of full-length AceI (residues 1 to 179) (A. baumannii) (UniProt P0DUT9)", "assay": "native MS"}, "[2]": {"target": "BRIL (apocytochrome b562RIL)-fusion of full-length AceI (residues 1 to 179) (A. baumannii) (UniProt P0DUT9)", "assay": "native MS"}, "[3]": {"target": "E15Q AceI mutant (A. baumannii)", "assay": "native MS"}, "[4]": {"target": "AceI (Acinetobacter chlorhexidine efflux protein I) (Acinetobacter baumannii, UniProt P0DUT9, E15Q)", "assay": "native mass spectrometry of purified mutant", "type": "binding"}, "[5]": {"target": "T1, AceI (Acinetobacter chlorhexidine efflux protein I) (Acinetobacter baumannii, UniProt P0DUT9)", "T1 construct": "amino acid residues 36 to 179, with a C-terminal hexahistidine tag", "assay": "native mass spectrometry of purified protein in detergent", "type": "binding"}, "[6]": {"target": "AceR (Acinetobacter chlorhexidine efflux protein regulator) (Acinetobacter baumannii, UniProt P0DUU5)", "assay": "isothermal titration calorimetry (AceR^CTD); native MS titration (AceR^FL)", "type": "binding", "source_text": "isothermal titration calorimetry (AceR^CTD); native MS titration (AceR^FL) on AceR (Acinetobacter chlorhexidine efflux protein regulator) | we used isothermal titration calorimetry."}, "[7]": {"target": "AceI (Acinetobacter chlorhexidine efflux protein I), truncated form, residues 36 to 179, with C-term (A. baumannii)", "assay": "native MS"}, "[8]": {"target": "AceI (Acinetobacter chlorhexidine efflux protein I), truncated form, residues 36 to 179 with a C-ter (A. baumannii)", "assay": "native MS"}, "[9]": {"target": "BRIL (apocytochrome b562RIL)-fusion of truncated AceI (residues 36 to 179) (A. baumannii)", "assay": "native MS"}, "[10]": {"target": "BRIL (apocytochrome b562RIL)-fusion construct of truncated AceI (residues 36 to 179) (A. baumannii)", "assay": "native MS"}, "native MS [11]": {"target": "the molecule itself", "assay": "native MS"}, "native MS [12]": {"target": "the molecule itself", "assay": "native MS", "remark": "listed apart in the source"}, "native MS [13]": {"target": "the molecule itself", "assay": "native MS", "remark": "listed apart in the source"}, "[14]": {"target": "T2, AceRFL (BRIL-AceR full length) (Acinetobacter baumannii, UniProt P0DUU5 1-297)", "T2 sequence": "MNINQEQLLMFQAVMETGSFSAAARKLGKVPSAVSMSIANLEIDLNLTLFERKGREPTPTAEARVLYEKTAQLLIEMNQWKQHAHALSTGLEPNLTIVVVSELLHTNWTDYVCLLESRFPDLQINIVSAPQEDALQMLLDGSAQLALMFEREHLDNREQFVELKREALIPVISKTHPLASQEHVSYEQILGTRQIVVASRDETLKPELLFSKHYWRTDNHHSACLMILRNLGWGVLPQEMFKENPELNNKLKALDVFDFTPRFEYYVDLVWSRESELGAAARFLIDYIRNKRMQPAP", "assay": "native MS; 2 uM AceRFL, 2 uM RS1, no chlorhexidine; one RS1 per dimer; native MS; 200 mM ammonium acetate, pH 8.0 (AceRFL-DNA); temperature not stated", "conditions": "protein: recombinant; tags: N-terminal BRIL (apocytochrome b562RIL) fusion; 6xHis; chain copies: 2; blunt"}, "[15]": {"target": "T2, AceRFL (BRIL-AceR full length)", "assay": "native MS; no chlorhexidine; one RS2 per dimer; native MS; 200 mM ammonium acetate, pH 8.0 (AceRFL-DNA); temperature not stated", "conditions": "protein: recombinant; tags: N-terminal BRIL (apocytochrome b562RIL) fusion; 6xHis; chain copies: 2; blunt"}},
  "note": "Several values for one entry are separate records, joined by “and”; a condition that tells them apart may be missing. Equal entries are not always repeated. Where two headings read alike, the source gives them in different places.",
  "data": [
    {"molecule": "BRIL (apocytochrome b562RIL)-fusion construct of full-length AceI (residues 1 to 179) (from UniProt P0DUT9 1-144) (natural protein)", "values": [
      {"measurement": "stoichiometry N", "setting": "[1]", "value": 2}
    ]},
    {"molecule": "BRIL (apocytochrome b562RIL)-fusion of full-length AceI (residues 1 to 179) (from UniProt P0DUT9 1-144) (natural protein)", "values": [
      {"measurement": "stoichiometry N", "setting": "[2]", "value": 2}
    ]},
    {"molecule": "E15Q AceI mutant (domain or fragment)", "values": [
      {"measurement": "Kd", "setting": "[3]", "value": "17.5 µM and 18.4 µM"}
    ]},
    {"molecule": "[H]/N=C(\\N/C(=N/[H])NCCCCCCNC(=N)NC(=N)Nc1ccc(Cl)cc1)Nc1ccc(Cl)cc1", "note": "[chlorhexidine]", "values": [
      {"measurement": "native mass spectrometry of purified mutant", "setting": "[4]", "value": "E15Q mutant and found that the binding of chlorhexidine also increased the dimer population of the mutant"},
      {"measurement": "native mass spectrometry of purified protein in detergent", "setting": "[5]", "value": "when tested with chlorhexidine, we observed multiple low-occupancy binding of up to three chlorhexidine molecules"},
      {"measurement": "Kd", "setting": "[6]", "value": "~16", "unit": "µM"}
    ]},
    {"molecule": "AceI (Acinetobacter chlorhexidine efflux protein I), truncated form, residues 36 to 179, with C-term (domain or fragment)", "values": [
      {"measurement": "Kd", "setting": "[7]", "value": 0.92, "unit": "µM"},
      {"measurement": "stoichiometry N", "setting": "[7]", "value": 2}
    ]},
    {"molecule": "AceI (Acinetobacter chlorhexidine efflux protein I), truncated form, residues 36 to 179 with a C-ter (domain or fragment)", "values": [
      {"measurement": "Kd", "setting": "[8]", "value": 5.69, "unit": "µM"},
      {"measurement": "stoichiometry N", "setting": "[8]", "value": 2}
    ]},
    {"molecule": "BRIL (apocytochrome b562RIL)-fusion of truncated AceI (residues 36 to 179) (domain or fragment)", "values": [
      {"measurement": "stoichiometry N", "setting": "[9]", "value": 2}
    ]},
    {"molecule": "BRIL (apocytochrome b562RIL)-fusion construct of truncated AceI (residues 36 to 179) (domain or fragment)", "values": [
      {"measurement": "stoichiometry N", "setting": "[10]", "value": 2}
    ]},
    {"molecule": "AceR^FL: full-length AceR (Acinetobacter chlorhexidine efflux protein regulator) with a Bril fusion at the N terminus (natural protein, source: E. coli C43(DE3), purified (HisTrap-HP)) MNINQEQLLMFQAVMETGSFSAAARKLGKVPSAVSMSIANLEIDLNLTLFERKGREPTPTAEARVLYEKTAQLLIEMNQWKQHAHALSTGLEPNLTIVVVSELLHTNWTDYVCLLESRFPDLQINIVSAPQEDALQMLLDGSAQLALMFEREHLDNREQFVELKREALIPVISKTHPLASQEHVSYEQILGTRQIVVASRDETLKPELLFSKHYWRTDNHHSACLMILRNLGWGVLPQEMFKENPELNNKLKALDVFDFTPRFEYYVDLVWSRESELGAAARFLIDYIRNKRMQPAP", "values": [
      {"measurement": "stoichiometry N", "setting": "native MS [11]", "value": 4},
      {"measurement": "stoichiometry N", "setting": "native MS [12]", "value": "2 and 4"}
    ]},
    {"molecule": "AceR^CTD: inducer-binding domain of AceR (amino acid residues 90 to 297) (domain or fragment, source: E. coli C43(DE3), purified (HisTrap-HP)) GLEPNLTIVVVSELLHTNWTDYVCLLESRFPDLQINIVSAPQEDALQMLLDGSAQLALMFEREHLDNREQFVELKREALIPVISKTHPLASQEHVSYEQILGTRQIVVASRDETLKPELLFSKHYWRTDNHHSACLMILRNLGWGVLPQEMFKENPELNNKLKALDVFDFTPRFEYYVDLVWSRESELGAAARFLIDYIRNKRMQPAP", "values": [
      {"measurement": "stoichiometry N", "setting": "native MS [12]", "value": 2}
    ]},
    {"molecule": "AceR^FL: full-length AceR (Acinetobacter chlorhexidine efflux protein regulator) with a Bril fusion at the N terminus (natural protein, source: expressed in high yields, purified) MNINQEQLLMFQAVMETGSFSAAARKLGKVPSAVSMSIANLEIDLNLTLFERKGREPTPTAEARVLYEKTAQLLIEMNQWKQHAHALSTGLEPNLTIVVVSELLHTNWTDYVCLLESRFPDLQINIVSAPQEDALQMLLDGSAQLALMFEREHLDNREQFVELKREALIPVISKTHPLASQEHVSYEQILGTRQIVVASRDETLKPELLFSKHYWRTDNHHSACLMILRNLGWGVLPQEMFKENPELNNKLKALDVFDFTPRFEYYVDLVWSRESELGAAARFLIDYIRNKRMQPAP", "values": [
      {"measurement": "stoichiometry N", "setting": "native MS [13]", "value": "2 and 4"}
    ]},
    {"molecule": "AceR^CTD: inducer-binding domain of AceR (amino acid residues 90 to 297) (domain or fragment) GLEPNLTIVVVSELLHTNWTDYVCLLESRFPDLQINIVSAPQEDALQMLLDGSAQLALMFEREHLDNREQFVELKREALIPVISKTHPLASQEHVSYEQILGTRQIVVASRDETLKPELLFSKHYWRTDNHHSACLMILRNLGWGVLPQEMFKENPELNNKLKALDVFDFTPRFEYYVDLVWSRESELGAAARFLIDYIRNKRMQPAP", "values": [
      {"measurement": "stoichiometry N", "setting": "native MS [13]", "value": 2}
    ]},
    {"molecule": "RS1 (site 1, 22 bp) (dsDNA) DNA 1: TTTTTTAACTTTCTTGGACTAA DNA 2: TTAGTCCAAGAAAGTTAAAAAA", "values": [
      {"measurement": "binding result", "setting": "[14]", "value": "binds"}
    ]},
    {"molecule": "RS2 (site 2, 34 bp) (dsDNA) DNA 1: ACTCTTCAACAAGAACTAATTATAAGTAGACAGT DNA 2: ACTGTCTACTTATAATTAGTTCTTGTTGAAGAGT", "values": [
      {"measurement": "binding result", "setting": "[15]", "value": "binds"}
    ]}
  ]
}
